Measurements: patent publication US20210079074A1 (Alector, published 2021)
No end group written: not given here. *: point of attachment. Biotin = O=C1N[C@H]2[C@H](CS[C@H]2CCCCC(=O)*)N1

What was measured:
[1] = molecular target: T1, recombinant MS4A4A soluble polypeptide JS1; test: ELISA, biotin-antigen on streptavidin plate
T1 construct: also called JS1.His; loop grafted antigen
Description: (§1) Anti-MS4A4A antibodies of the present disclosure were tested for their ability to bind to the different recombinant MS4A4A soluble polypeptides, as described in Example 2, as follows. Nucleic acid encoding the VH and VL domains of humanized anti-MS4A4A antibodies of the present disclosure were cloned into pcDNA3.4 vector which contains either the human IgG1 heavy chain constant domain or human kappa constant domain. The humanized anti-MS4A4A antibodies were expressed in Expi293 cells and were purified by Mab select antibody purification resin (GE Healthcare Life Science, cat#17519902) following the manufacture's protocol. ELISA was performed to measure binding of anti-MS4A4A antibodies of the present disclosure the recombinant MS4A4A soluble polypeptides. 1 μg/ml biotinylated antigens were preincubated on the streptavidin-coated ELISA plates (Thermo Scientific, cat#PI15120) for 1 hour. Plates were washed 3 times, followed by the addition of antibodies (1 μg/ml, 0.33 μg/ml, and 0.11 μg/ml antibodies. Plates were incubated at room temperature with shaking for 1 hr, washed 3 times, then 1/2500 dilution of HRP conjugates goat anti human kappa antibodies added (SigmaAldrich cat#. A7164-1ML).

[2] = molecular target: T2, recombinant MS4A4A soluble polypeptide JS5; test: ELISA, biotin-antigen on streptavidin plate
T2 construct: also called JS5.His
Description: as §1

[3] = molecular target: T3, negative control polypeptide JS10; test: ELISA, biotin-antigen on streptavidin plate
T3 construct: negative control for JS5 and JS6; also called JS10.His
Description: as §1

[4] = molecular target: T4, recombinant MS4A4A soluble polypeptide JS6; test: ELISA, biotin-antigen on streptavidin plate
T4 construct: also called JS6.His
Description: as §1

[5] = molecular target: T5, negative control polypeptide JS4; test: ELISA, biotin-antigen on streptavidin plate
T5 construct: negative control for JS1; also called JS4.His
Description: as §1

[6] = molecular target: T2, recombinant MS4A4A soluble polypeptide …; test: ELISA, 0.4 ug/ml antibody
[7] = molecular target: T1, recombinant MS4A4A soluble polypeptide …; test: ELISA, 1 ug/ml antibody
Summary of the method: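 Biotinylated antigen 1 μg/ml captured on streptavidin, 1 h; wash x3. Humanized IgG1/kappa Ab (Expi293) 1, 0.33, 0.11 μg/ml, 1 hr RT shaking; wash x3. HRP anti-human kappa 1/2500.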

peptide 4A.5 = molecular target: T6, peptide 4A.5 (human); test: SPR array, biotin-peptide on streptavidin chip
T6 peptide: Biotin-LAFYSFHHPYCNYYG
Description: (§2) A panel of overlapping peptides derived from the extracellular loops (ECLs) of human MS4A4A (SEQ ID NO:1) were synthesized by JPT peptides (Berlin, Germany). These peptides were 15 amino acids in length, each offset by 2 amino acids. The peptides were biotinylated on the N-terminus. Peptides 4A.1 through 4A.4 were derived from human MS4A4A ECL1 and surrounding regions. Peptides 4A.5 through 4A.12 were derived from human MS4A4A ECL2 and surrounding regions.
(§3) The peptide library was printed onto a streptavidin-coated chip (Xantec SAD50M, Dusseldorf, Germany) using the Continuous Flow Microspotter (CFM). […] The peptide library was immobilized onto the chip at 250 nM per peptide diluted into HBS-EP+ buffer (Teknova Cat #H8022) with 1 mg/ml BSA and 1 μg/ml mouse IgG-Biotin. Following immobilization, the chip surface was deactivated with 1M ethanolamine at pH 8.5 for 10 minutes. Hybridoma supernatants and purified anti-MS4A4A antibodies were diluted in HBS-EP+ buffer with 1 mg/ml BSA and injected onto the chip. Duplicate measurements for each anti-MS4A4A antibody were taken to ensure reproducibility. Binding characteristics were determined for each peptide-antibody combination, allowing the mapping of the linear peptide region each antibody interacts with.

peptide 4A.6 = molecular target: T7, peptide 4A.6 (human); test: SPR array, biotin-peptide on streptavidin chip
T7 peptide: Biotin-FYSFHHPYCNYYGNS
Description: as §2, §3

peptide 4A.12 = molecular target: T8, peptide 4A.12 (human); test: SPR array, biotin-peptide on streptavidin chip
T8 peptide: Biotin-GNSNNCHGTMSILMG
Description: as §2, §3

peptide 4A.7 = molecular target: T9, peptide 4A.7 (human); test: SPR array, biotin-peptide on streptavidin chip
T9 peptide: Biotin-SFHHPYCNYYGNSNN
Description: as §2, §3

peptide 4A.10 = molecular target: T10, peptide 4A.10 (human, cysteine pairing not given here); test: SPR array, biotin-peptide on streptavidin chip
T10 peptide: Biotin-CNYYGNSNNCHGTMS
Description: as §2, §3

peptide 4A.4 = molecular target: T11, peptide 4A.4 (human); test: SPR array, biotin-peptide on streptavidin chip
T11 peptide: Biotin-ASNTYGSNPISVYIG
Description: as §2, §3

peptide 4A.2 = molecular target: T12, peptide 4A.2 (human); test: SPR array, biotin-peptide on streptavidin chip
T12 peptide: Biotin-MMCMASNTYGSNPIS
Description: as §2, §3

peptide 4A.8 = molecular target: T13, peptide 4A.8 (human, cysteine pairing not given here); test: SPR array, biotin-peptide on streptavidin chip
T13 peptide: Biotin-HHPYCNYYGNSNNCH
Description: as §2, §3

peptide 4A.1 = molecular target: T14, peptide 4A.1 (human); test: SPR array, biotin-peptide on streptavidin chip
T14 peptide: Biotin-ITMMCMASNTYGSNP
Description: as §2, §3

peptide 4A.3 = molecular target: T15, peptide 4A.3 (human); test: SPR array, biotin-peptide on streptavidin chip
T15 peptide: Biotin-CMASNTYGSNPISVY
Description: as §2, §3

peptide 4A.9 = molecular target: T16, peptide 4A.9 (human, cysteine pairing not given here); test: SPR array, biotin-peptide on streptavidin chip
T16 peptide: Biotin-PYCNYYGNSNNCHGT
Description: as §2, §3

peptide 4A.11 = molecular target: T17, peptide 4A.11 (human); test: SPR array, biotin-peptide on streptavidin chip
T17 peptide: Biotin-YYGNSNNCHGTMSIL
Description: as §2, §3

[8] = molecular target: T18, huMS4A4A-ECL2 free-peptide (human); test: peptide ELISA, murine antibody
T18 construct: synthetic, free or BSA-conjugated, coated on the plate; also called human MS4A4A ECL2 peptide; huMS4A4A-ELC2 free-peptide
T18 peptide: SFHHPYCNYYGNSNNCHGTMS
Description: Coated plates were then blocked with ELISA diluent (PBS+0.5% BSA+0.05% Tween20) for 1-hour, washed 3×300 μL in PBST (PBS+0.05% Tween20, Thermo Cat#28352), and then the antibodies were added to the plate ([…]). After 30 mins incubation (room temperature, with shaking), the plates were washed 3×300 μL in PBST. […] After a final set of washes (3×300 μL in PBST), 50 μL of TMB substrate (BioFx Cat#TMBW-1000-01) was added and the reaction was then quenched after 5-10 mins with 50 μL of stop solution (BioFx Cat#BSTP-1000-01). The quenched reaction wells were detected for absorbance at […] with a BioTek Synergy Microplate Reader using GENS 2.04 software.

ELISA OD [1]: 2.02
ELISA OD [2]: 1.73
ELISA OD [3]: 0.112
ELISA OD [4]: 1.67
ELISA OD [5]: 0.138
OD450 [6]: 0.925
OD450 [7]: 1.96
SPR binding response (peptide 4A.5): 383
SPR binding response (peptide 4A.6): 486
SPR binding response (peptide 4A.12): -5.2
SPR binding response (peptide 4A.7): 446
SPR binding response (peptide 4A.10): -4.5
SPR binding response (peptide 4A.4): -7.9
SPR binding response (peptide 4A.2): -11.5
SPR binding response (peptide 4A.8): 309
SPR binding response (peptide 4A.1): -11.2
SPR binding response (peptide 4A.3): -10.6
SPR binding response (peptide 4A.9): 225
SPR binding response (peptide 4A.11): -6.5
binding result [8]: binds
B1: anti-MS4A4A antibody 4A-21 (antibody, V domains shown)
VH: QIQLVQSGPELKKPGETVKISCKASGYIFTSYGLSWVKQTPGKGLKWMGWINTYSGVPTYANDFKGRFAFSLETSASTTYLRINNLKNDDTATYFCARSLVDYWGQGTPLTVSS
VL: not shown
notes: murine parental; tested as mouse IgG1 or as human IgG1 Fc chimera (hFc), told under assay; also called 4A-21.hFc
